Measurements as given in the supplement of paper PMC10724198.
± gives the standard deviation of the averaged measurements.

What was measured:
Experiment in all cases: protein stability index of tFT-peptide fusion (C-terminal peptide) (PSI (0-1 scale)); higher = more stable (slower turnover)
Saccharomyces cerevisiae [1] = conditions: temperature: 30 C
Description: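 MPS profiling in S. cerevisiae of the yeast C-terminome library: the last 12 aa of each annotated ORF are fused to the C-terminus of a sfGFP-mCherry timer, after a GGGS linker. Cells are FACS-sorted into 8 mCherry/sfGFP bins and deep-sequenced. PSI runs from 0 (unstable) to 1 (stable); wild type and das1Δ backgrounds, two technical replicates each.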

Saccharomyces cerevisiae [2] = conditions: genetic background: wild type; temperature: 30 C
Saccharomyces cerevisiae [3] = tested on: Saccharomyces cerevisiae
Description: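 MPS profiling in S. cerevisiae of the tFT-X12 degron library: putative degron peptides plus stable controls, 12 aa, fused to the C-terminus of a sfGFP-mCherry timer. Cells are FACS-sorted into 8 mCherry/sfGFP bins and deep-sequenced. PSI runs from 0 (unstable) to 1 (stable). Backgrounds are wild type, das1Δ and doa10Δ at 30 °C, and wild type, das1Δ, cdc34-1 and cdc53-1 at 37 °C; 2-3 technical replicates each.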

[4] = genetic background: das1 deletion
[5] = genetic background: cdc34-1, temperature: 37 C
[6] = genetic background: cdc53-1, temperature: 37 C
[7] = genetic background: das1 deletion, temperature: 30 C
[8] = genetic background: das1 deletion, temperature: 37 C
[9] = genetic background: doa10 deletion, temperature: 30 C
[10] = genetic background: wild type, temperature: 30 C
[11] = genetic background: wild type, temperature: 37 C

Sequence	protein stability index (Saccharomyces cerevisiae [1]; [4])	protein stability index (Saccharomyces cerevisiae [1]; genetic background: wild type)	protein stability index (Saccharomyces cerevisiae [2])	protein stability index (Saccharomyces cerevisiae [3]; [5])	protein stability index (Saccharomyces cerevisiae [3]; [6])	protein stability index (Saccharomyces cerevisiae [3]; [7])	protein stability index (Saccharomyces cerevisiae [3]; [8])	protein stability index (Saccharomyces cerevisiae [3]; [9])	protein stability index (Saccharomyces cerevisiae [3]; [10])	protein stability index (Saccharomyces cerevisiae [3]; [11])
YPQQLLGYTDNG [YKL115C C-terminal 12 aa]	0.628 ± 0.013	0.597 ± 0.0073								
ISKKVFGNKLHQ [MTM1 C-terminal 12 aa]	0.709 ± 0.0014	0.656 ± 0.022								
NYDLQKLYDKID [QDR3 C-terminal 12 aa]	0.705 ± 0.037	0.6544 ± 0.0034								
LHTLYLRPASAI [SSN8 C-terminal 12 aa]	0.701 ± 0.021	0.669 ± 0.03								
TDDNNIQTILLK [YIG1 C-terminal 12 aa]	0.679 ± 0.012	0.704 ± 0.044								
SLSLRNHNSSQL [CLN1 C-terminal 12 aa]	0.708 ± 0.024	0.701 ± 0.017								
RKRKQSKSGLLL [NOP8 C-terminal 12 aa]	0.723 ± 0.024	0.699 ± 0.01								
QKAKLNKLDSKK [NOP7 C-terminal 12 aa]	0.677 ± 0.0057	0.704 ± 0.068								
FHPLFYCSALVF [YIL142C-A C-terminal 12 aa]	0.256 ± 0.016	0.277 ± 0.015								
SGYDYFDVSVSG [YAT1 C-terminal 12 aa]	0.71 ± 0.022	0.712 ± 0.015								
VEVLENLQSVLK [ATP16 C-terminal 12 aa]	0.68 ± 0.013	0.7134 ± 0.0029								
NVDVVTPNSIFI [TMA17 C-terminal 12 aa]	0.67 ± 0.036	0.6982 ± 0.0046								
HAYVIEKLPDVF [FCF1 C-terminal 12 aa]	0.719 ± 0.0048	0.698 ± 0.016								
TIGWLQESLAGI [HOT1 C-terminal 12 aa]	0.706 ± 0.0076	0.684 ± 0.029								
LRTVASRLKERY [PNO1 C-terminal 12 aa]	0.698 ± 0.013	0.706 ± 0.056								
IFKKIRLLLHVN [MCP1 C-terminal 12 aa]	0.615 ± 0.013	0.2 ± 0.03								
ALAASRAEQPPA [YCR049C C-terminal 12 aa]	0.691 ± 0.0084	0.712 ± 0.012								
RLLSLWEVFQMA [RPC82 C-terminal 12 aa]	0.646 ± 0.027	0.6182 ± 0.0037								
TQSGDDYTIRLT [APM1 C-terminal 12 aa]	0.703 ± 0.015	0.698 ± 0.014								
SLDKMAQQLGVE [YKR005C C-terminal 12 aa]	0.698 ± 0.016	0.677 ± 0.036								
RLTSRSGSANRA [SAC7 C-terminal 12 aa]	0.706 ± 0.028	0.65006 ± 5.7e-05								
LKSLKKNLTRDR [MTF2 C-terminal 12 aa]	0.722 ± 0.033	0.6605 ± 0.0051								
KDVETLSVSDEK [SEO1 C-terminal 12 aa]	0.686 ± 0.021	0.696 ± 0.043								
GLVGQHQGGGSM [RTC5 C-terminal 12 aa]	0.68 ± 0.0094	0.6633 ± 0.0038								

Sequence	protein stability index (Saccharomyces cerevisiae [1]; [4])	protein stability index (Saccharomyces cerevisiae [1]; genetic background: wild type)	protein stability index (Saccharomyces cerevisiae [2])	protein stability index (Saccharomyces cerevisiae [3]; [5])	protein stability index (Saccharomyces cerevisiae [3]; [6])	protein stability index (Saccharomyces cerevisiae [3]; [7])	protein stability index (Saccharomyces cerevisiae [3]; [8])	protein stability index (Saccharomyces cerevisiae [3]; [9])	protein stability index (Saccharomyces cerevisiae [3]; [10])	protein stability index (Saccharomyces cerevisiae [3]; [11])
GPEPPRYDEISS [CSR2 C-terminal 12 aa]	0.705 ± 0.058	0.635 ± 0.025								
LSRFRYFVLTSL			0.261 ± 0.041	0.531 ± 0.026	0.6913 ± 0.0028	0.608 ± 0.018	0.698 ± 0.033	0.146 ± 0.015	0.171 ± 0.019	0.263 ± 0.037
ERRWKRKVIGLC			0.274 ± 0.047	0.632 ± 0.034	0.736 ± 0.031	0.594 ± 0.015	0.734 ± 0.0071	0.115 ± 0.025	0.131 ± 0.0095	0.214 ± 0.024
FSLRLFLVLALS			0.193 ± 0.0034	0.3032 ± 0.0029	0.377 ± 0.01	0.261 ± 0.021	0.395 ± 0.012	0.123 ± 0.013	0.154 ± 0.028	0.227 ± 0.0026
LFFSPRRLSPPT			0.748 ± 0.011	0.705 ± 0.024	0.7533 ± 0.0049	0.695 ± 0.03	0.778 ± 0.022	0.688 ± 0.019	0.695 ± 0.015	0.746 ± 0.022
GGYIINRWRTKN			0.27 ± 0.052	0.566 ± 0.035	0.709 ± 0.022	0.622 ± 0.016	0.724 ± 0.052	0.113 ± 0.026	0.142 ± 0.021	0.273 ± 0.011
IHRSPLTLPLLV			0.468 ± 0.08	0.526 ± 0.021	0.584 ± 0.023	0.461 ± 0.031	0.5726 ± 0.005	0.406 ± 0.014	0.435 ± 0.019	0.5383 ± 0.0043
MFLHLGLFIMSH			0.382 ± 0.037	0.348 ± 0.011	0.4065 ± 0.0032	0.303 ± 0.025	0.457 ± 0.0099	0.2787 ± 0.0023	0.306 ± 0.014	0.435 ± 0.006
LRCCGALPLYAY			0.348 ± 0.018	0.251 ± 0.038	0.248 ± 0.03	0.238 ± 0.038	0.3968 ± 0.0033	0.189 ± 0.014	0.228 ± 0.028	0.341 ± 0.022
VYFRMGFMRVCV			0.4611 ± 0.0042	0.487 ± 0.05	0.5 ± 0.037	0.416 ± 0.032	0.554 ± 0.0079	0.32 ± 0.013	0.344 ± 0.027	0.493 ± 0.015
DLFVFFVFHFFL			0.457 ± 0.026	0.425 ± 0.032	0.532 ± 0.029	0.372 ± 0.041	0.589 ± 0.013	0.377 ± 0.015	0.38 ± 0.033	0.5686 ± 0.0029
CRAAMYSFFLNF			0.427 ± 0.025	0.674 ± 0.063	0.75 ± 0.017	0.651 ± 0.037	0.7584 ± 0.0043	0.236 ± 0.0046	0.299 ± 0.0089	0.529 ± 0.022
GVSRRWFSLRCI			0.214 ± 0.0074	0.627 ± 0.039	0.717 ± 0.015	0.612 ± 0.029	0.75 ± 0.013	0.125 ± 0.009	0.15 ± 0.011	0.2424 ± 0.0022
IKSLLGCWHKHY			0.479 ± 0.018	0.679 ± 0.017	0.732 ± 0.0077	0.647 ± 0.031	0.7145 ± 0.0066	0.279 ± 0.028	0.303 ± 0.057	0.574 ± 0.04
WRCECELASACA			0.431 ± 0.013	0.458 ± 0.015	0.473 ± 0.027	0.347 ± 0.037	0.508 ± 0.0082	0.31 ± 0.0062	0.361 ± 0.024	0.486 ± 0.0079
FCLGFRFFVFFL			0.218 ± 0.032	0.26 ± 0.011	0.291 ± 0.018	0.271 ± 0.027	0.408 ± 0.013	0.208 ± 0.012	0.163 ± 0.022	0.288 ± 0.021
KIHILVVQIATR			0.0736 ± 0.038	0.0402 ± 0.0097	0.134 ± 0.0054	0.0541 ± 0.0098	0.1391 ± 0.00019	0.0346 ± 0.0032	0.0319 ± 0.013	0.114 ± 0.0046
KLRMGRYIVRII			0.259 ± 0.0076	0.6637 ± 0.0034	0.661 ± 0.041	0.569 ± 0.022	0.6655 ± 0.0023	0.152 ± 0.024	0.135 ± 0.019	0.242 ± 0.012
LLYHFCLFFFRE			0.513 ± 0.044	0.521 ± 0.044	0.592 ± 0.037	0.462 ± 0.024	0.619 ± 0.014	0.441 ± 0.015	0.449 ± 0.011	0.558 ± 0.053
PFLLLVSPISSC			0.433 ± 0.011	0.416 ± 0.037	0.403 ± 0.01	0.301 ± 0.028	0.4637 ± 0.0012	0.271 ± 0.0057	0.302 ± 0.028	0.445 ± 0.014
HRNILSIIIKNL			0.109 ± 0.046	0.541 ± 0.083	0.681 ± 0.027	0.642 ± 0.057	0.685 ± 0.029	0.0819 ± 0.039	0.0771 ± 0.015	0.1025 ± 0.00088
WGCTGGRGRLVC			0.428 ± 0.049	0.69 ± 0.025	0.74 ± 0.013	0.643 ± 0.029	0.7405 ± 0.0052	0.254 ± 0.011	0.295 ± 0.013	0.555 ± 0.024
LGVCLFFVRCWS			0.174 ± 0.047	0.1796 ± 0.0014	0.205 ± 0.0098	0.189 ± 0.033	0.324 ± 0.019	0.159 ± 0.025	0.184 ± 0.033	0.271 ± 0.034
